Test results from IntAct's records for PubMed 18001824.

B1: E3 ubiquitin-protein ligase RNF8 (Homo sapiens), O76064 (parent)
chain: MGEPGFFVTGDRAGGRSWCLRRVGMSAGWLLLEDGCEVTVGRGFGVTYQLVSKICPLMISRNHCVLKQNPEGQWTIMDNKSLNGVWLNRARLEPLRVYSIHQGDYIQLGVPLENKENAEYEYEVTEEDWETIYPCLSPKNDQMIEKNKELRTKRKFSLDELAGPGAEGPSNLKSKINKVSCESGQPVKSQGKGEVASTPSDNLDPKLTALEPSKTTGAPIYPGFPKVTEVHHEQKASNSSASQRSLQMFKVTMSRILRLKIQMQEKHEAVMNVKKQTQKGNSKKVVQMEQELQDLQSQLCAEQAQQQARVEQLEKTFQEEEQHLQGLEIAQGEKDLKQQLAQALQEHWALMEELNRSKKDFEAIIQAKNKELEQTKEEKEKMQAQKEEVLSHMNDVLENELQCIICSEYFIEAVTLNCAHSFCSYCINEWMKRKIECPICRKDIKSKTYSLVLDNCINKMVNNLSSEVKERRIVLIRERKAKRLF

Variants of: B1
Settings: with mdc1_human MDC1, Q14676
Sequence of mdc1_human MDC1, Q14676 (Q14676 whole entry): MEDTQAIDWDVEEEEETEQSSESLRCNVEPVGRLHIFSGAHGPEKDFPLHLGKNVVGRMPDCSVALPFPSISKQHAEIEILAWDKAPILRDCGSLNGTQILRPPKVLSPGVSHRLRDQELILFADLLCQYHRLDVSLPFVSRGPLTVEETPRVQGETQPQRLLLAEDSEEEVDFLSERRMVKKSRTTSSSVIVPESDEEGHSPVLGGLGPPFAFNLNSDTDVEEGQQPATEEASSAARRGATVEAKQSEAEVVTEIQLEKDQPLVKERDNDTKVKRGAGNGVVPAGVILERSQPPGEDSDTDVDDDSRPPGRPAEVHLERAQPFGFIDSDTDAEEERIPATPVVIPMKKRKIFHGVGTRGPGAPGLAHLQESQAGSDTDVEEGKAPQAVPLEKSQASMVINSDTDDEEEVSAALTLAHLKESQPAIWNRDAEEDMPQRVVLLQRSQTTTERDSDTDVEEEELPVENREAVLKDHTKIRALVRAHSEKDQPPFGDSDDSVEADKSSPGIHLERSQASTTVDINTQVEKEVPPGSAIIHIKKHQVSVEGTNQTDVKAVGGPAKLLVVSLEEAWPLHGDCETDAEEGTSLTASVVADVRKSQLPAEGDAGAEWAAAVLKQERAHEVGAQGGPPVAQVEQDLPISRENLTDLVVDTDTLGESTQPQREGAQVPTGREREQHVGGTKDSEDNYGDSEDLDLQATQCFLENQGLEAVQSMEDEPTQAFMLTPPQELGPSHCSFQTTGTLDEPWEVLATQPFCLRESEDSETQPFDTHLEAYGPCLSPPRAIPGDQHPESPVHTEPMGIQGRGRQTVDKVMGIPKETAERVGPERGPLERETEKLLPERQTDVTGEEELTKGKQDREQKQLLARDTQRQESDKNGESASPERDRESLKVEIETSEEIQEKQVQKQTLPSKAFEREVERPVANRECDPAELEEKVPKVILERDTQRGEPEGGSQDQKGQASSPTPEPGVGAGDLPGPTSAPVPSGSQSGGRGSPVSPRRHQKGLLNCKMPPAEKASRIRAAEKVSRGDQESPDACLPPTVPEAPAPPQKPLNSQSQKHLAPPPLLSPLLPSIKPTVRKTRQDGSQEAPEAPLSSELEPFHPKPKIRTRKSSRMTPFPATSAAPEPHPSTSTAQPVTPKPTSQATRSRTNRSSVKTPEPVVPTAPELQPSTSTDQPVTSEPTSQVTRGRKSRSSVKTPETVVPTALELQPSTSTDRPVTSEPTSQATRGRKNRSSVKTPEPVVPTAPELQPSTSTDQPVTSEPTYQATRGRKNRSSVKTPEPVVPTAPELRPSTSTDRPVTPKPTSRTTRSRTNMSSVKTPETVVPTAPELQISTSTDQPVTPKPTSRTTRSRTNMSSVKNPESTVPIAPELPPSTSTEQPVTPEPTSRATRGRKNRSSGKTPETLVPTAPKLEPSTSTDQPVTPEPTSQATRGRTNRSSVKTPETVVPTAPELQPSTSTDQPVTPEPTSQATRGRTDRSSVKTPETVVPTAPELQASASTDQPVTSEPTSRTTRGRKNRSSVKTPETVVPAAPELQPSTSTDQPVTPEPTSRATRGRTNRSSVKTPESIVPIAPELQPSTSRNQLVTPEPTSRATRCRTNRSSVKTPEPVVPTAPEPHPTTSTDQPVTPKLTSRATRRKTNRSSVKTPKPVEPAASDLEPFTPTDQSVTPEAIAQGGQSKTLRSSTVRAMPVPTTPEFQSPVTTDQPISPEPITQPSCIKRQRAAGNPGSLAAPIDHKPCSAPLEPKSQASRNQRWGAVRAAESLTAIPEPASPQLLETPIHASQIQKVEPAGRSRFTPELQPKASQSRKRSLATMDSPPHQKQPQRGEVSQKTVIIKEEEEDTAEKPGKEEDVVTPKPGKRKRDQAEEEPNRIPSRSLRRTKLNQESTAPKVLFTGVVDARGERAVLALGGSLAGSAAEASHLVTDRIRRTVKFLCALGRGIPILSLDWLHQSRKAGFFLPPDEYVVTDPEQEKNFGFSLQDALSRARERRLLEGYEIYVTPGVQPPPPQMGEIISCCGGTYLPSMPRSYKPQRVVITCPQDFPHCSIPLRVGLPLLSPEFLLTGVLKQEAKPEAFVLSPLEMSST

effect of a mutation on the interaction | Variant
disrupting interaction | R42A
